# Experimental data published in patent US20130017578.
# Where two headings read alike, the source gives them in different places.
# What was measured:
# [1] = target: Int5 (Int-h/218 mutein) Int-h/218 substitutions (not given),I43A (Bacteriophage lambda) (UniProt P03700); settings: attH x attPH, relative to Int-h/218 on attB x attP
# [2] = target: Int1 (Int-h/218 mutein) Int-h/218 substitutions (not given),I43A,H61R (Bacteriophage lambda) (UniProt P03700); settings: attH x attPH, relative to Int-h/218 on attB x attP
# [3] = target: Int-h/218 (parental lambda integrase mutant) Int-h/218 substitutions (not given) (Bacteriophage lambda) (UniProt P03700); settings: attB x attP recombination, real-time PCR; reference activity
# [4] = target: Int5 (Int-h/218 mutein) Int-h/218 substitutions (not given),I43A (Bacteriophage lambda) (UniProt P03700); assay: cell_activity; settings: attB x attP GFP reporter in HEK293, relative to Int-h/218
# [5] = target: Int1 (Int-h/218 mutein) Int-h/218 substitutions (not given),I43A,H61R (Bacteriophage lambda) (UniProt P03700); assay: cell_activity; settings: attB x attP GFP reporter in HEK293, relative to Int-h/218
sequence,measurement,setting,value
CAGCTTTCTTATACCAAGTTG (double strand) [attPH],binding signal,[1],100%
same,binding signal,[2],140%
CAGCTTTTTTATACTAAGTTG (double strand) [attP core],binding signal,[3],100%
same,binding signal,[4]; attH x attP <1% activity,65%
same,binding signal,[5]; attH x attP <1% activity,50%
CTGCTTTCTTATACCAAGTGG (double strand) [attH],binding signal,[1]; 9-fold over Int-h/218 on genomic attH (FIG. 4D),100%
same,binding signal,[2]; 7-fold over Int-h/218 when translated in vitro (FIG. 4A),140%
CTGCTTTTTTATACTAACTTG (double strand) [attB core],binding signal,[3],100%
same,binding signal,[4],65%
same,binding signal,[5],50%
